# According to patent US20260242735A1 (UNIVERSIT T BASEL, published 2026):
# B1: Refmab #3 (antibody, human IgG1, V domains shown)
# VH: QVQLVQSGAEVKKPGSSVKVSCKASGYTFTDYNMHWVRQAPGQGLEWIGYIYPYNGGTGYNQKFKSKATITADESTNTAYMELSSLRSEDTAVYYCARGRPAMDYWGQGTLVTVSS
# VL: DIQMTQSPSSLSASVGDRVTITCRASESVDNYGISFMNWFQQKPGKAPKLLIYAASNQGSGVPSRFSGSGSGTDFTLTISSLQPDDFATYYCQQSKEVPWTFGQGTKVEIK
# Columns and labels:
# Test in all cases: BLI (Octet R8), avidity format: biotinylated CD33 on streptavidin sensor, Refmab #3 as analyte at 500 nM;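 further: analyte association recorded over 300 s, then dissociation followed for 900 s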
# [1] = target: CD33 variant Y50R (recombinant, biotinylated) (human, UniProt P20138 18-259, biotinylated with EZ-Link Sulfo-NHS-LC-Biotin (sites not given))
# Chain of CD33 variant Y50R (recombinant, biotinylated) (P20138 other isoform, or with tags, fused parts or gaps Y50R Y50R): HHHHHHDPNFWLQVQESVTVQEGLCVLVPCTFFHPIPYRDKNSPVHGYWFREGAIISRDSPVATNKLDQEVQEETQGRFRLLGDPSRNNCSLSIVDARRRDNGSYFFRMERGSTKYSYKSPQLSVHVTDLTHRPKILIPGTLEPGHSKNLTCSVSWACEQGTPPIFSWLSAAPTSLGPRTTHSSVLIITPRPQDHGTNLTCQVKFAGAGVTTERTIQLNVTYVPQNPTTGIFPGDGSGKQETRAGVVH
# [2] = target: CD33 variant N20G (recombinant, biotinylated) (human, UniProt P20138 21-259, biotinylated with EZ-Link Sulfo-NHS-LC-Biotin (sites not given))
# Chain of CD33 variant N20G (recombinant, biotinylated) (P20138 other isoform, or with tags, fused parts or gaps N20G N20G): as the sequence (P20138 other isoform, or with tags, fused parts or gaps Y50R Y50R) above, with N9G, R39Y counted along it
# [3] = target: CD33 variant W22R (recombinant, biotinylated) (human, UniProt P20138 18-259, biotinylated with EZ-Link Sulfo-NHS-LC-Biotin (sites not given))
# Chain of CD33 variant W22R (recombinant, biotinylated) (P20138 other isoform, or with tags, fused parts or gaps W22R W22R): as the sequence (P20138 other isoform, or with tags, fused parts or gaps Y50R Y50R) above, with W11R, R39Y counted along it
# [4] = target: CD33 variant N20H (recombinant, biotinylated) (human, UniProt P20138 21-259, biotinylated with EZ-Link Sulfo-NHS-LC-Biotin (sites not given))
# Chain of CD33 variant N20H (recombinant, biotinylated) (P20138 other isoform, or with tags, fused parts or gaps N20H N20H): as the sequence (P20138 other isoform, or with tags, fused parts or gaps Y50R Y50R) above, with N9H, R39Y counted along it
# [5] = target: CD33 variant N20K (recombinant, biotinylated) (human, UniProt P20138 21-259, biotinylated with EZ-Link Sulfo-NHS-LC-Biotin (sites not given))
# Chain of CD33 variant N20K (recombinant, biotinylated) (P20138 other isoform, or with tags, fused parts or gaps N20K N20K): as the sequence (P20138 other isoform, or with tags, fused parts or gaps Y50R Y50R) above, with N9K, R39Y counted along it
# [6] = target: CD33 variant F21N (recombinant, biotinylated) (human, UniProt P20138 22-259, biotinylated with EZ-Link Sulfo-NHS-LC-Biotin (sites not given))
# Chain of CD33 variant F21N (recombinant, biotinylated) (P20138 other isoform, or with tags, fused parts or gaps F21N F21N): as the sequence (P20138 other isoform, or with tags, fused parts or gaps Y50R Y50R) above, with F10N, R39Y counted along it
# [7] = target: CD33 variant W22E (recombinant, biotinylated) (human, UniProt P20138 18-259, biotinylated with EZ-Link Sulfo-NHS-LC-Biotin (sites not given))
# [8] = target: CD33 variant F21M (recombinant, biotinylated) (human, UniProt P20138 22-259, biotinylated with EZ-Link Sulfo-NHS-LC-Biotin (sites not given))
# [9] = target: T1, CD33 wild type (recombinant, biotinylated) (human, UniProt P20138 18-259, biotinylated with EZ-Link Sulfo-NHS-LC-Biotin (sites not given))
# T1 construct: also called WT; CD33 wt
# T1 sequence (P20138 other isoform, or with tags, fused parts or gaps): as the sequence (P20138 other isoform, or with tags, fused parts or gaps Y50R Y50R) above, with R39Y counted along it
# [10] = target: CD33 variant F21H (recombinant, biotinylated) (human, UniProt P20138 22-259, biotinylated with EZ-Link Sulfo-NHS-LC-Biotin (sites not given))
# Chain of CD33 variant F21H (recombinant, biotinylated) (P20138 other isoform, or with tags, fused parts or gaps F21H F21H): as the sequence (P20138 other isoform, or with tags, fused parts or gaps Y50R Y50R) above, with F10H, R39Y counted along it
# [11] = target: CD33 variant N20E (recombinant, biotinylated) (human, UniProt P20138 21-259, biotinylated with EZ-Link Sulfo-NHS-LC-Biotin (sites not given))
# [12] = target: CD33 variant F21S (recombinant, biotinylated) (human, UniProt P20138 22-259, biotinylated with EZ-Link Sulfo-NHS-LC-Biotin (sites not given))
# Chain of CD33 variant F21S (recombinant, biotinylated) (P20138 other isoform, or with tags, fused parts or gaps F21S F21S): as the sequence (P20138 other isoform, or with tags, fused parts or gaps Y50R Y50R) above, with F10S, R39Y counted along it
# [13] = target: CD33 variant F21Q (recombinant, biotinylated) (human, UniProt P20138 22-259, biotinylated with EZ-Link Sulfo-NHS-LC-Biotin (sites not given))
# Chain of CD33 variant F21Q (recombinant, biotinylated) (P20138 other isoform, or with tags, fused parts or gaps F21Q F21Q): as the sequence (P20138 other isoform, or with tags, fused parts or gaps Y50R Y50R) above, with F10Q, R39Y counted along it
# [14] = target: CD33 variant F21L (recombinant, biotinylated) (human, UniProt P20138 22-259, biotinylated with EZ-Link Sulfo-NHS-LC-Biotin (sites not given))
# Chain of CD33 variant F21L (recombinant, biotinylated) (P20138 other isoform, or with tags, fused parts or gaps F21L F21L): as the sequence (P20138 other isoform, or with tags, fused parts or gaps Y50R Y50R) above, with F10L, R39Y counted along it
# [15] = target: CD33 variant F21I (recombinant, biotinylated) (human, UniProt P20138 22-259, biotinylated with EZ-Link Sulfo-NHS-LC-Biotin (sites not given))
# Chain of CD33 variant F21I (recombinant, biotinylated) (P20138 other isoform, or with tags, fused parts or gaps F21I F21I): as the sequence (P20138 other isoform, or with tags, fused parts or gaps Y50R Y50R) above, with F10I, R39Y counted along it
# [16] = target: CD33 variant N20V (recombinant, biotinylated) (human, UniProt P20138 21-259, biotinylated with EZ-Link Sulfo-NHS-LC-Biotin (sites not given))
# Chain of CD33 variant N20V (recombinant, biotinylated) (P20138 other isoform, or with tags, fused parts or gaps N20V N20V): as the sequence (P20138 other isoform, or with tags, fused parts or gaps Y50R Y50R) above, with N9V, R39Y counted along it
# [17] = target: CD33 variant F44P (recombinant, biotinylated) (human, UniProt P20138 18-259, biotinylated with EZ-Link Sulfo-NHS-LC-Biotin (sites not given))
# Chain of CD33 variant F44P (recombinant, biotinylated) (P20138 other isoform, or with tags, fused parts or gaps F44P F44P): as the sequence (P20138 other isoform, or with tags, fused parts or gaps Y50R Y50R) above, with F33P, R39Y counted along it
# [18] = target: CD33 variant W22T (recombinant, biotinylated) (human, UniProt P20138 18-259, biotinylated with EZ-Link Sulfo-NHS-LC-Biotin (sites not given))
# Chain of CD33 variant W22T (recombinant, biotinylated) (P20138 other isoform, or with tags, fused parts or gaps W22T W22T): as the sequence (P20138 other isoform, or with tags, fused parts or gaps Y50R Y50R) above, with W11T, R39Y counted along it
# [19] = target: CD33 variant W22K (recombinant, biotinylated) (human, UniProt P20138 18-259, biotinylated with EZ-Link Sulfo-NHS-LC-Biotin (sites not given))
# [20] = target: CD33 double variant Y50H_H49H (recombinant, biotinylated) (human, UniProt P20138 18-259, biotinylated with EZ-Link Sulfo-NHS-LC-Biotin (sites not given))
# Chain of CD33 double variant Y50H_H49H (recombinant, biotinylated) (P20138 other isoform, or with tags, fused parts or gaps Y50H H49H Y50H H49H): as the sequence (P20138 other isoform, or with tags, fused parts or gaps Y50R Y50R) above, with Y38H, R39H counted along it
# [21] = target: CD33 variant Y50K (recombinant, biotinylated) (human, UniProt P20138 18-259, biotinylated with EZ-Link Sulfo-NHS-LC-Biotin (sites not given))
# Chain of CD33 variant Y50K (recombinant, biotinylated) (P20138 other isoform, or with tags, fused parts or gaps Y50K Y50K): as the sequence (P20138 other isoform, or with tags, fused parts or gaps Y50R Y50R) above, with R39K counted along it
# [22] = target: CD33 variant F21V (recombinant, biotinylated) (human, UniProt P20138 22-259, biotinylated with EZ-Link Sulfo-NHS-LC-Biotin (sites not given))
# [23] = target: CD33 variant W22D (recombinant, biotinylated) (human, UniProt P20138 18-259, biotinylated with EZ-Link Sulfo-NHS-LC-Biotin (sites not given))
# Chain of CD33 variant W22D (recombinant, biotinylated) (P20138 other isoform, or with tags, fused parts or gaps W22D W22D): as the sequence (P20138 other isoform, or with tags, fused parts or gaps Y50R Y50R) above, with W11D, R39Y counted along it
# [24] = target: CD33 variant Y50D (recombinant, biotinylated) (human, UniProt P20138 18-259, biotinylated with EZ-Link Sulfo-NHS-LC-Biotin (sites not given))
# Chain of CD33 variant Y50D (recombinant, biotinylated) (P20138 other isoform, or with tags, fused parts or gaps Y50D Y50D): as the sequence (P20138 other isoform, or with tags, fused parts or gaps Y50R Y50R) above, with R39D counted along it
binder,measurement,setting,value
B1,% WT binding,[1],93.1 % WT binding
same,% WT binding,[2],0 % WT binding
same,% WT binding,[3],0.86 % WT binding
same,% WT binding,[4],5.39 % WT binding
same,% WT binding,[5],0 % WT binding
same,% WT binding,[6],0 % WT binding
same,% WT binding,[7],23.5 % WT binding
same,% WT binding,[8],0 % WT binding
same,% WT binding,[9],100 % WT binding
same,% WT binding,[10],0 % WT binding
same,% WT binding,[11],0 % WT binding
same,% WT binding,[12],0 % WT binding
same,% WT binding,[13],0 % WT binding
same,% WT binding,[14],0 % WT binding
same,% WT binding,[15],0 % WT binding
same,% WT binding,[16],6.62 % WT binding
same,% WT binding,[17],0 % WT binding
same,% WT binding,[18],5.25 % WT binding
same,% WT binding,[19],0 % WT binding
same,% WT binding,[20],58.5 % WT binding
same,% WT binding,[21],73.9 % WT binding
same,% WT binding,[22],0 % WT binding
same,% WT binding,[23],6.42 % WT binding
same,% WT binding,[24],128 % WT binding
